Experiment in all cases: FACS, transfected HeLa cells
A general note: A flow cytometer gives signals particle by particle.

The target in assay [1] is T1, Macaca fascicularis (cynomolgus) CEACAM6, full-length, on transfected HeLa cells (Macaca fascicularis, GPI anchor at the C-terminus on the cell surface, not carried by the letters).
T1 construct: also called TPP-4189; HeLa Cynomolgus CEACAM6
T1 chain: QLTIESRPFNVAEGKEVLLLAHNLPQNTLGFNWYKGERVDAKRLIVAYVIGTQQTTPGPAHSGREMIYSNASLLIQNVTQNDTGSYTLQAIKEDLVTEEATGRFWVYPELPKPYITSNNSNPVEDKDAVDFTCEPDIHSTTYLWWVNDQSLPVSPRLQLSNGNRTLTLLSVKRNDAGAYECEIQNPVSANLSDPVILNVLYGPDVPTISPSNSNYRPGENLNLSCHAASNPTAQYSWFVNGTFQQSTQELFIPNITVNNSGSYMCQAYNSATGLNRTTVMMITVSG
The procedure:
(§1) For FACS experiments HeLa wild type cells were cultured in RPMI-1640, 10% FCS, while CEACAM-receptor transfected HeLa cells received in addition 0.5% Gentamycin (stock 10 mg/ml, Fa. PAA) and 200 μg/ml Hygromycin B (stock 50 mg/ml, Invitrogen). Cells were washed 3 times with PBS w/o Ca²⁺/Mg²⁺ and were detached from the culture plate non-enzymatically with EDTA dissociation buffer (Gibco). Cells were washed in cold FACS buffer (PBS w/o Ca²⁺/Mg²⁺ and heat-inactivated 3% FCS) and were counted using a countess machine (Invitrogen). 10⁵ cells per well were plated and incubated with the respective primary antibody (5 μg/ml) for 1 h at 4° C. on a plate shaker. […] After 2 times washing the cells were resuspended in 100 μl FACS buffer and were analysed on a FACS Canto II machine (Beckton Dickinson) or a FACS Array (Beckton Dickinson).
(§2) For EC₅₀ analysis, the primary antibodies were used at increasing concentrations in a range from 0.1 nM to 100 nM. Half maximal binding values (EC₅₀) were determined by plotting the median fluorescence intensity signal against the concentration (logarithmic scale). Curve fitting of data was performed using the Graph Pad prism analysis software.

The target of assay [2] is T2, human CEACAM5, full-length, on transfected HeLa cells (human, UniProt P06731 35-685, GPI anchor at the C-terminus on the cell surface, not carried by the letters).
T2 construct: also called TPP-4188; HeLa human CEACAM5
T2 sequence: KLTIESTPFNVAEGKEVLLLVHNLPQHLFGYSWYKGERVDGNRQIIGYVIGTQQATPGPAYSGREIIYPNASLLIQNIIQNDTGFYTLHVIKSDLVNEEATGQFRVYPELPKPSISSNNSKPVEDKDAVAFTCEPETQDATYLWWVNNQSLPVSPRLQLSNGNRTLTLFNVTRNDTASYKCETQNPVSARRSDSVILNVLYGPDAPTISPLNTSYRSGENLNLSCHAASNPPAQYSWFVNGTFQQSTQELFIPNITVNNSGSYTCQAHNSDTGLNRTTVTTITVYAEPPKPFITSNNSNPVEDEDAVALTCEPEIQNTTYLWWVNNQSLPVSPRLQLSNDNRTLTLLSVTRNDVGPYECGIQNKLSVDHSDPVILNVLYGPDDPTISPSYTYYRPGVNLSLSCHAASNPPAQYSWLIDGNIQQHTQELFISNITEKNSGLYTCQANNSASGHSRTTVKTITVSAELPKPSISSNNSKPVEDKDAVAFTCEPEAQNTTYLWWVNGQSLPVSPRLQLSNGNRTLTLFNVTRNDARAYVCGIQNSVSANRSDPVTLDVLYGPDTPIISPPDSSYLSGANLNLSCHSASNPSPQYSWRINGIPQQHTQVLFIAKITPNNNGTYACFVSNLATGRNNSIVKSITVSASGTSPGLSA
The procedure: as §1, §2

Assay [3] concerns the target T3, human CEACAM3, full-length, on transfected HeLa cells (human, UniProt P40198 35-252).
T3 construct: also called TPP-4187; HeLa human CEACAM3
T3 sequence: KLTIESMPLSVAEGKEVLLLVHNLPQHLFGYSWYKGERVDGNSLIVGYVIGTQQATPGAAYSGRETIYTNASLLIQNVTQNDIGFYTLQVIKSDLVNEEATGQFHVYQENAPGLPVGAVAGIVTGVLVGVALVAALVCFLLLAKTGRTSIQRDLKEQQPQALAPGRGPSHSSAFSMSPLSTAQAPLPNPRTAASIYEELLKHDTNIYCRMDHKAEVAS
The procedure: as §1, §2

The target of assay [4] is T4, human CEACAM8, full-length, on transfected HeLa cells (human, UniProt P31997 35-320).
T4 construct: also called TPP-4190; HeLa human CEACAM8
T4 sequence: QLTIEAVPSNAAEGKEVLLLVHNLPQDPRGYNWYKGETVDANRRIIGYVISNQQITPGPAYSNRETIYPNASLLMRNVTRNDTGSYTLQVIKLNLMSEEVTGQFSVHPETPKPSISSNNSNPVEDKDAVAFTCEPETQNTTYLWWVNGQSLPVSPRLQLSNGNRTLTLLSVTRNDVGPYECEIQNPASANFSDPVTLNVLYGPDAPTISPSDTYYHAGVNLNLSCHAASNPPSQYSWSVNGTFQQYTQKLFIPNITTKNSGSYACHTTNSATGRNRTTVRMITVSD
The procedure: as §1, §2

In assay [5] the target is T5, human CEACAM1, full-length, on transfected HeLa cells (human, UniProt P13688 35-526).
T5 construct: also called TPP-4185; HeLa human CEACAM1
T5 sequence: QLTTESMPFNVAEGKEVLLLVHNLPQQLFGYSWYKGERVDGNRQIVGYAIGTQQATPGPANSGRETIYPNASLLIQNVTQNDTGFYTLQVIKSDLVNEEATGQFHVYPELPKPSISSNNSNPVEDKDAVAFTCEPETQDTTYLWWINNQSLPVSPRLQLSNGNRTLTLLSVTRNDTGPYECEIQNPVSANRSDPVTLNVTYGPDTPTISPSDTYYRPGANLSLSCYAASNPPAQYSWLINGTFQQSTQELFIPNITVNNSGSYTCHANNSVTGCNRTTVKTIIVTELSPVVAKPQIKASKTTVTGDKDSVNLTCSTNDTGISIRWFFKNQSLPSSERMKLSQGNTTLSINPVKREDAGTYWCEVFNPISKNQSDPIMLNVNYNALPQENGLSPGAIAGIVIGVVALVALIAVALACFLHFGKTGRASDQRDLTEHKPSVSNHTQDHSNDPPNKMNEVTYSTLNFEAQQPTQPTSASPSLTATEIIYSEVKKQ
The procedure: as §1, §2

Usually EC50 stands for the concentration that produces a half-maximal response.

B1: TPP-2971 (antibody, mouse IgG1, V domains shown)
VH: QVTLKESGPGILQPSQTLSLTCSFSGFSLSTYGIGVGWIRQPSGKDLEWLAHIWWNDNKYYNTALKSRLTISKDTSNNQVFLKIASVDTADTATYYCARISLPYFDYWGQGTTLTVSS
VL: DIVMTQSQKFMSTSVGDRVSITCKASQNVGTAVAWYQQKPGQSPKLLIYSASNRYTGVPDRFTGSGSGTDFTLTISNMQSEDLADYFCQQYSSYPLTFGAGTKLELK
notes: murine hybridoma antibody, mouse IgG1; also called 792.15H12C9
In turn, B1 gave a concentration giving a half-maximal response (EC50) in assay [1] of 0.5 nM. Moreover, the FACS median fluorescence in assay [1] was in the range of 100 to 1000 medianfluorescence. Besides, the binding result in assay [2], in assay [3], in assay [4] and in assay [5] was “no binding (tested: 5 µg/ml)” each time.

B2: TPP-3187 (antibody, mouse IgG1, V domains shown)
VH: QVTLKESGPGILQPSQTLSLTCSFSGFSLTTYGIGVGWIRQPSGKGLEWLAHIWWNDNKYYNTALKSRLTISKDTSNNQVFLKIASVDTADTATYYCARISLPYFDYWGQGTTLTVSS
VL: DIVMTQSQKFMSTSVGDRVSITCKASQNVGTAVAWYQQKPGQSPKLLIYSASNRYTGVPDRFTGSGSGTDFTLTISNMQSEDLADYFCQQYNNYPLTFGAGTKLELK
notes: murine hybridoma antibody, mouse IgG1; also called 792.15C4F4
In assay [1], B2 came in with a half-maximal effective concentration (EC50) of 4 nM. The same molecule came in with an FACS median fluorescence in assay [1] of 100 to 1000 medianfluorescence. Also, the binding result in assay [2], in assay [3], in assay [4] and in assay [5] was “no binding (tested: 5 µg/ml)” throughout.

B3: TPP-3707 (antibody, human IgG2, kappa, V domains shown)
VH: EVQLVESGGGLVQPGGSLRLSCAASGFTFSLYQMHWVRQAPGKGLEWVSWISFSGGNTGYADSVKGRFTISRDNSKNTLYLQMNSLRAEDTAVYYCARATGYSSPWYLDPWGQGTLVTVSS
VL: DIQMTQSPSSLSASVGDRVTITCQASHEIDNYLNWYQQKPGKAPKLLIYDAYWSKTGVPSRFSGSGSGTDFTLTISSLQPEDIATYYCQGYDDLSVTFGGGTKVDIKR
notes: also called 090E-M007-A09-Mat2-hIgG2-hIgG2Kappa
In assay [1], B3 showed an EC50 of 4 nM. Also, the binding result in assay [2] and in assay [4] was “no binding (tested: 5 µg/ml)” in each case. Further, the FACS median fluorescence in assay [5] lay within 10 to 100 medianfluorescence.

B4: TPP-3821 (antibody, human IgG2, kappa, V domains shown)
VH: QVTLRESGPALVKPTQTLTLTCTFSGFSLSTYGIGVGWIRQPPGKALEWLAHIWWNDNKYYSTSLKTRLTISKDTSKNQVVLTMTNMDPVDTATYYCARISLPYFDYWGQGTLVTVSS
VL: DIQLTQSPSFLSASVGDRVTITCKASQNVGTAVAWYQQKPGKAPKLLIYSASNRYTGVPSRFSGSGSGTEFTLTISSLQPEDFATYYCQQYNNYPLTFGGGTKVEIKR
notes: humanized from TPP-3187, human IgG2; also called 3187HU2-hIgG2Kappa
Regarding B4, the EC50 in assay [1] was found to be 1 nM. In addition, the binding result in assay [2], in assay [3], in assay [4] and in assay [5] was “no binding (tested: 5 µg/ml)” each time.

B5: TPP-3820 (antibody, human IgG2, kappa, V domains shown)
VH: QVTLRESGPALVKPTQTLTLTCTFSGFSLTTYGIGVGWIRQPPGKGLEWLAHIWWNDNKYYSTSLKTRLTISKDTSKNQVVLTMTNMDPVDTATYYCARISLPYFDYWGQGTLVTVSS
VL: DIQLTQSPSFLSASVGDRVTITCKASQNVGTAVAWYQQKPGKAPKLLIYSASNRYTGVPSRFSGSGSGTEFTLTISSLQPEDFATYYCQQYNNYPLTFGGGTKVEIKR
notes: humanized from TPP-3187, human IgG2; also called 3187HU1-hIgG2Kappa
As for B5, a half-maximal effect in assay [1] (EC50) was put at 1 nM. Also, the binding result in assay [2], in assay [3], in assay [4] and in assay [5] was “no binding (tested: 5 µg/ml)” throughout.

B6: TPP-3310 (antibody, human IgG2, kappa)
heavy: QVTLRESGPALVKPTQTLTLTCTFSGFSLSTYGIGVGWIRQPPGKALEWLAHIWWNDNKYYSTSLKTRLTISKDTSKNQVVLTMTNMDPVDTATYYCARISLPYFDYWGQGTTLTVSSASTKGPSVFPLAPCSRSTSESTAALGCLVKDYFPEPVTVSWNSGALTSGVHTFPAVLQSSGLYSLSSVVTVPSSNFGTQTYTCNVDHKPSNTKVDKTVERKCCVECPPCPAPPVAGPSVFLFPPKPKDTLMISRTPEVTCVVVDVSHEDPEVQFNWYVDGVEVHNAKTKPREEQFNSTFRVVSVLTVVHQDWLNGKEYKCKVSNKGLPAPIEKTISKTKGQPREPQVYTLPPSREEMTKNQVSLTCLVKGFYPSDIAVEWESNGQPENNYKTTPPMLDSDGSFFLYSKLTVDKSRWQQGNVFSCSVMHEALHNHYTQKSLSLSPG
light: DIQLTQSPSFLSASVGDRVTITCKASQNVGTAVAWYQQKPGKAPKLLIYSASNRYTGVPSRFSGSGSGTEFTLTISSLQPEDFATYYCQQYSSYPLTFGGGTKVEIKRTVAAPSVFIFPPSDEQLKSGTASVVCLLNNFYPREAKVQWKVDNALQSGNSQESVTEQDSKDSTYSLSSTLTLSKADYEKHKVYACEVTHQGLSSPVTKSFNRGEC
notes: humanized from TPP-2971, human IgG2; also called TPP-2971HU1-hIgG2Kappa
Molecule B6 registered an EC50 in assay [1] of 1.5 nM. Also, the binding result in assay [2], in assay [3], in assay [4] and in assay [5] was “no binding (tested: 5 µg/ml)” in each case.
